Among the data in US20220175942A1 (published 2022) are Kd values, retold here.

To fix the notation:
B4: CCL18_HUMAN (ligand)
chain: AQVGTNKELCCLVYTSWQIPQKFIVDYSETSPQCPKPGVILLTKRGRQICADPNKKWVQKYISDLKLNA
B6: CCL22_HUMAN (ligand)
chain: GPYGANMEDSVCCRDYVRYRLPLRVVKHFYWTSDSCPRPGVVLLTFRDKEICADPRVPWVKMILNKLSQ
B7: CCL3_HUMAN (ligand)
chain: SLAADTPTACCFSYTSRQIPQNFIADYFETSSQCSKPGVIFLTKRSRQVCADPSEEWVQKYVSDLELSA

One experiment has as its target CCL23_HUMAN. Description: BLI.
Another experiment concerns the target CCL3L1_HUMAN. As to the kind of experiment: BLI. In general terms: Biolayer interferometry detects binding as a change in optical thickness at a sensor tip.
Another experiment deals with CCL7_HUMAN. As to the kind of experiment: BLI.
For another experiment, the target named is CCL14_HUMAN. Description: BLI.
Another experiment addresses CCL16_HUMAN. As to the kind of experiment: BLI.
The experiment “CCL3_HUMAN” has as its target B7. As to the kind of experiment: BLI.
The target of another experiment is CCL2_HUMAN (human, UniProt P13500 24-99). As to the kind of experiment: BLI.
CCL2_HUMAN, sequence (P13500 24-99): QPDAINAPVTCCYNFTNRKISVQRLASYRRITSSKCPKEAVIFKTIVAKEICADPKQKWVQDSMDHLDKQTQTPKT
The target in a further experiment is T1, CCL15_HUMAN (human, UniProt Q16663 22-113).
T1 chain: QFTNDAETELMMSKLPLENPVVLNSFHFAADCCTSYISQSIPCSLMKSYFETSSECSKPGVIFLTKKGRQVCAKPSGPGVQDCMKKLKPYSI
As to the kind of experiment: BLI.

A further experiment addresses T2, CCL8_HUMAN (human, UniProt P80075 24-99).
T2 chain: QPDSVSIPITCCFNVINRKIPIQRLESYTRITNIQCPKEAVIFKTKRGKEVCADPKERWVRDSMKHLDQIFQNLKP
Description: BLI.

Experiment [1] deals with EVASIN4. Description: -; previously described evasin.
The target in another experiment is CCL24_HUMAN. Description: BLI.
A further experiment addresses CCL4L1_HUMAN. As to the kind of experiment: BLI.
Another experiment deals with CCL13_HUMAN. Description: BLI.
Another experiment concerns the target CCL11_HUMAN (human, UniProt P51671 24-97). As to the kind of experiment: BLI.
In a further experiment the target is T3, CCL4 (human, UniProt P13236 24-92).
T3 chain: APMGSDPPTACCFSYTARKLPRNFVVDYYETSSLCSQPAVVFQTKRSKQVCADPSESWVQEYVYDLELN
As to the kind of experiment: BLI.

For a further experiment, the target named is T4, CCL1_HUMAN (human, UniProt P22362 24-96).
T4 chain: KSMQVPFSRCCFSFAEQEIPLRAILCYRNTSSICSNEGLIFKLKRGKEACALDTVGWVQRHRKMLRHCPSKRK
Description: BLI.

In a further experiment the target is T5, CCL5_HUMAN (human, UniProt P13501 24-91).
T5 chain: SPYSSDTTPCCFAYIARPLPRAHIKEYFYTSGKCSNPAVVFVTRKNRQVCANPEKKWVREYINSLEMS
Description: BLI.

The experiment “CCL18_HUMAN” has as its target B4. As to the kind of experiment: BLI.
In experiment [2] the target is EVASIN4. As to the kind of experiment: -; previously described evasin. The source holds these as a separate data set.
A further experiment has as its target EVASIN1. As to the kind of experiment: -; previously described evasin.
A further experiment addresses T6, CCL17_HUMAN (human, UniProt Q92583 24-94).
T6 chain: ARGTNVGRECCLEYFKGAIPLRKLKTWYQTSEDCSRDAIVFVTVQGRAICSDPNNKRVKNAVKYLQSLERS
As to the kind of experiment: BLI.

For the experiment “CCL22_HUMAN”, the target named is B6. As to the kind of experiment: BLI.

Like-named read-outs stand apart in the source and are kept apart here.

CCL11_HUMAN, sequence (P51671 24-97): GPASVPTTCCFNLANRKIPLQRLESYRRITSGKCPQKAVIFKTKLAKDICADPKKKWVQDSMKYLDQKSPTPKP

B1: P672_RHIPU (other)
chain: VCEVSEQEGVGEDNATEDEDYEDFFKPVTCYFANSTVGPLRPPNCTVVCTNNTAWWNDTKSDGGHCYSEYRPEKRTHSREIYNCTIGVCGNGTCIANHTYADCW
As usually defined, the Kd is the equilibrium constant for the complex coming apart. Regarding B1, the Kd with CCL23_HUMAN was determined as 10 nM; with CCL3L1_HUMAN, 2.7 nM; with CCL7_HUMAN, 16.1 nM; with CCL14_HUMAN it was 5.5 nM; with CCL16_HUMAN, 3.29 nM; with CCL3_HUMAN, 2.6 nM. Further, the equilibrium dissociation constant (Kd) with CCL2_HUMAN worked out at 9.09 nM; with CCL15_HUMAN, 31.5 nM; with CCL8_HUMAN, 3.7 nM.

B2: CCL25_HUMAN (ligand)
chain: QGVFEDCCLAYHYPIGWAVLRRAWTYRIQEVSGSCNLPAAIFYLPKRHRKVCGNPKSREVQRAMKLLDARNKVFAKLHHNTQTFQAGPHAVKKLSSGNSKLSSSKFSNPISSSKRNVSLLISANSGL
On to B2, for which the Kd with EVASIN4 [1] was found to be 69.6 nM.

B3: P985_AMBPA (other)
chain: DEESEELGASTDVDYEELDANCTCPAPALTSTRNNKHYPLGCIYNCSSYNCTIPDGTPCYVLTLGEVKEHLQIGSTVPNCTCGLCRNGTCVSNGTVEECFAVEEIEET
Take B3: the Kd in the experiment with CCL24_HUMAN is 40.8 nM; with CCL4L1_HUMAN, 20.6 nM; in the experiment with CCL3L1_HUMAN, 45.8 nM; with CCL7_HUMAN, 61.4 nM; with CCL16_HUMAN, 44.8 nM; with CCL13_HUMAN it was 89 nM. Further, the Kd with CCL11_HUMAN is 8 nM; with CCL4, 7.47 nM; with CCL1_HUMAN, 8.32 nM; in the experiment with CCL3_HUMAN, 8.9 nM; with CCL5_HUMAN, 3.52 nM; in the experiment with CCL2_HUMAN, 16.8 nM. Further, the Kd with CCL18_HUMAN came out at 431 nM; with CCL8_HUMAN, 6.53 nM.

Take B4: the dissociation constant (Kd) with EVASIN4 [2] came to 0.03 nM; with EVASIN1 it was 3 nM.

B5: CCL4_HUMAN (ligand)
chain: APMGSDPPTACCFSYTARKLPRNFVVDYYETSSLCSQPAVVFQTKRSKQVCADPSESWVQEYVYDLELN
Molecule B5 showed a Kd with EVASIN1 of 0.5 nM.

In the experiment with EVASIN4 [1], B6 gave a Kd of 0.43 nM.

On to B7, for which the Kd with EVASIN4 [2] turned out to be 0.06 nM; in the experiment with EVASIN1, 0.1 nM.

B8: P1181_AMBMA (other)
chain: EEREDDNDYGGGCPFVVLGNGTHAKPAGCSHLCNGAPETLDNIECYNVTEEVAKRMTPDIPYTCWLGWCSKGECKRDNRTEVCYRGSERE
B8: the Kd in the experiment with CCL4L1_HUMAN was 13.5 nM; with CCL3L1_HUMAN, 100 nM; in the experiment with CCL7_HUMAN, 35 nM; in the experiment with CCL14_HUMAN, 47 nM; with CCL13_HUMAN, 19 nM; in the experiment with CCL11_HUMAN it was 19.5 nM. In addition, the Kd is 53 nM with CCL4; 3.29 nM with CCL3_HUMAN; 2.21 nM with CCL2_HUMAN; 10 nM with CCL18_HUMAN; 119 nM in the experiment with CCL8_HUMAN.

B9: P1182_AMBMA (other)
chain: EPKDDNDYGGGCPFVVLGNGTHAKPAGCSHLCNGAPETLDNIECYNVTEEVAKRMTPGIPYACWLGWCNKGECKRGNRTEVCYRGSEEE
For the molecule B9, the Kd with CCL3L1_HUMAN stood at 63.4 nM; with CCL7_HUMAN it was 29.2 nM; in the experiment with CCL13_HUMAN, 50 nM; with CCL11_HUMAN, 56 nM; in the experiment with CCL4, 92.4 nM; with CCL1_HUMAN, 74 nM. Moreover, the Kd with CCL3_HUMAN is 9.46 nM; in the experiment with CCL17_HUMAN, 33.4 nM; in the experiment with CCL2_HUMAN, 5.39 nM; in the experiment with CCL8_HUMAN, 28.2 nM.

B10: P467_RHIPU (other)
chain: AEKSLDSDSSGEDYELWTQGCPFLVAENRTGFGTTVSCQHNCNGAIEKVPEGEPCYTIGEDGLGRMKLNLPYNCSLGECSGGVCVPNGRSDVCFKRTWEENNKAMA
As to B10, the dissociation constant Kd with CCL4L1_HUMAN was 4.72 nM; with CCL3L1_HUMAN, 0.524 nM; with CCL7_HUMAN it was 2.15 nM; with CCL14_HUMAN, 4.13 nM; with CCL16_HUMAN, 14.1 nM; with CCL13_HUMAN, 2.56 nM. The dissociation constant (Kd) worked out at 1.4 nM with CCL11_HUMAN; 13.6 nM with CCL4; 53.4 nM in the experiment with CCL1_HUMAN; 0.363 nM with CCL3_HUMAN; 7.67 nM in the experiment with CCL5_HUMAN; 0.001 nM with CCL2_HUMAN. The Kd in the experiment with CCL18_HUMAN worked out at 16.6 nM; with CCL8_HUMAN it was 2.85 nM.

B11: P546_AMBCA (other)
chain: ENTQQEEEDYDYGTDTCPFPVLANKTNKAKFVGCHQKCNGGDQKLTDGTACYVVERKVWDRMTPMLWYSCPLGECKNGVCEDLRKKEECRKGNGEEK
B11: the equilibrium dissociation constant (Kd) amounted to 8.87 nM in the experiment with CCL4L1_HUMAN; 14.7 nM with CCL3L1_HUMAN; 90 nM with CCL7_HUMAN; 28.2 nM in the experiment with CCL14_HUMAN; 6.67 nM in the experiment with CCL16_HUMAN; 13.1 nM with CCL13_HUMAN. Besides, the Kd was found to be 8.7 nM with CCL11_HUMAN; 26.6 nM with CCL4; 160 nM with CCL1_HUMAN; 14.5 nM in the experiment with CCL3_HUMAN; 70 nM with CCL17_HUMAN; 83 nM in the experiment with CCL2_HUMAN. Also, the Kd with CCL18_HUMAN was 16 nM; in the experiment with CCL8_HUMAN it was 1.29 nM; with CCL22_HUMAN it was 27 nM.

B12: P974_AMBCA (other)
chain: ENTQQEEQDYDYGTDTCPFPVLANKTNKAKFVGCHQKCNGGDQKLTDGTACYVVERKVWDRMTPMLWYECPLGECKNGVCEDLRKKEDCRKGNGEEK
Consider B12, for which the Kd with CCL4L1_HUMAN was determined as 23.2 nM; in the experiment with CCL3L1_HUMAN, 13.1 nM; with CCL7_HUMAN, 41.2 nM; with CCL14_HUMAN it was 49.1 nM; with CCL16_HUMAN it was 11 nM; with CCL13_HUMAN, 22.9 nM. The dissociation constant (Kd) with CCL11_HUMAN turned out to be 17 nM; in the experiment with CCL4, 30.2 nM; in the experiment with CCL1_HUMAN, 70.5 nM; with CCL3_HUMAN, 7.97 nM; with CCL17_HUMAN, 70.6 nM; in the experiment with CCL2_HUMAN it was 93 nM. Further, the Kd was determined as 0.683 nM with CCL18_HUMAN, 2.58 nM with CCL8_HUMAN and 16.8 nM in the experiment with CCL22_HUMAN.
